Assay results: patent US8106168B2, “Metalloproteinase binding proteins” (Dyax Corp., priority 2005, dated 2012)

B1: M0038-F01: human antibody (Fab, IgG) that binds and inhibits MMP-14; HC SEQ ID NO: 156, LC SEQ ID NO: 157 (antibody, V domains shown)
VH: EVQLLESGGGLVQPGGSLRLSCAASGFTFSLYSMNWVRQAPGKGLEWVSSIYSSGGSTLYADSVKGRFTISRDNSKNTLYLQMNSLRAEDTAVYYCARGRAFDIWGQGTMVTVSS
VL: QDIQMTQSPSSLSAFVGDKVTITCRASQSVGTYLNWYQQKAGKAPELLIYATSNLRSGVPSRFSGSGSGTDFTLTINTLQPEDFATYYCQQSYSIPRFTFGPGTKVDIK
modifications: Synthetically generated peptide
B2: M0040-A06: human antibody (Fab, IgG) that binds and inhibits MMP-14; HC SEQ ID NO: 162, LC SEQ ID NO: 163 (antibody, V domains shown)
VH: EVQLLESGGGLVQPGGSLRLSCAASGFTFSYYGMYWVRQAPGKGLEWVSSISSSGGYTDYADSVKGRFTISRDNSKNTLYLQMNSLRAEDTAVYYCARRIKYYDIEGEGAFDIWGQGTMVTVSS
VL: QDIVMTQTPPSLPVNPGEPASISCRSSQSLLHRNGYNYLDWYLQKPGQSPQLLIHLGSYRASGVPDRFSGSGSGTDFTLKISRVEAEDVGVYYCMQPLQTPFTFGPGTKVDIK
modifications: Synthetically generated peptide
B3: M0043-G02: human antibody (Fab, IgG) that binds and inhibits MMP-14; HC SEQ ID NO: 166, LC SEQ ID NO: 167 (antibody, V domains shown)
VH: EVQLLESGGGLVQPGGSLRLSCAASGFTFSWYPMFWVRQAPGKGLEWVSGIYSSGGPTDYADSVKGRFTISRDNSKNTLYLQMNSLRAEDTAVYYCAKDTLGRYYDFWSGYSYGMDVWGQGTTVTVSS
VL: QDIQMTQSPGTLSLSPGERATLSCRASQSVSSSYLAWYQQKPGQAPRLLIYGASSRATGIPDRFSGSGSGTDFTLTISRLEPEDFAVYYCQSGVTFGGGTKVEIK
modifications: Synthetically generated peptide

Key:
[1] = target: T1, MMP-16 (Homo sapiens, UniProt P51512); experiment: Cross-reactivity of anti-MMP-14 IgGs, enzymatic activity: MMP-16; type: biochemical; settings: 1 μM anti-MMP-14 IgG
T1 sequence (P51512 120-607): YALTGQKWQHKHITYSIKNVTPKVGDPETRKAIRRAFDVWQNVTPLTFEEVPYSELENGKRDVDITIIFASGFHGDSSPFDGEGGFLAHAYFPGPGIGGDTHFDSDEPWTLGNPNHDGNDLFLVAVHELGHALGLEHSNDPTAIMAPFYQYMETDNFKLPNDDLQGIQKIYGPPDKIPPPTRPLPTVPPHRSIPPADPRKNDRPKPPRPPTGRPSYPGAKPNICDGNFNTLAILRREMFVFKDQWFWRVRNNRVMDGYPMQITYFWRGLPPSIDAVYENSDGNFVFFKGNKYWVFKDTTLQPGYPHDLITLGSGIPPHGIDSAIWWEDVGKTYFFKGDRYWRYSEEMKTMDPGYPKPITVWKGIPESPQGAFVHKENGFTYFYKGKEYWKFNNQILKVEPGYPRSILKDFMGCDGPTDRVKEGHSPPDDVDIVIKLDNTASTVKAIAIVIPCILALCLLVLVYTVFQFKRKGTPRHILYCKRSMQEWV
Procedure: The cross-reactivity of exemplary anti-MMP-14 IgGs and Fabs with other human MMPs and TACE (TNF-alpha converting enzyme) was examined. MMP and TACE enzymatic activity was monitored in the absence and presence of 1 μM anti-MMP-14 IgG antibody. Inhibition (Y) of activity ranged from approximately 50-80% of the reaction rate observed in the absence of antibody. “X” indicates no inhibition was observed. Cross-reactivity was not determined for MMP-17 because protein activity could not be detected.
For the studies summarized in Table 12, six anti-MMP-14 IgGs were selected for cross-reactivity testings: M0043-G02, M0040-A06, M0037-D01, M037-C09, M0038-F01, M0033-H07.

[2] = target: T1, MMP-16; experiment: Cross-reactivity of Fabs and IgGs with MMP-16 (Example 8); type: biochemical; parameters: key to MMP-16 (cross-reactivity, class symbol): X: Does not inhibit MMP-16 at [I] = 100 nM level; settings: 5 nM MMP16, 30 minutes at 30° C., 10 μM substrate
Procedure: For the studies summarized in Tables 13 and 14, 100 nM anti-MMP-14 Fab/IgG were incubated with 5 nM MMP16 for 30 minutes at 30° C., 10 μM of substrate was added, and the MMP-16 activity was measured.

[3] = target: T2, MMP-14 (Homo sapiens, UniProt P50281); experiment: Selection and phage ELISA screening of anti-MMP-14 Fabs; type: binding; settings: Fab from FAB310 phage display library
Method in brief: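 Phage ELISA screened 95 clones from each of rounds 2 and 3 against biotinylated MMP-14 (1 μg/ml) captured on streptavidin, in TRIS/CaCl2/NaCl pH 7.5. The clones came from Fab library selections on biotinylated MMP-14, either free or TIMP-2-complexed (500 nM round 1, 100 nM later rounds). Elution used 2.5 μM TIMP-2 followed by TEA.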

[4] = target: MMP-24 (Homo sapiens, UniProt Q9Y5R2); experiment: Cross-reactivity of Fabs with MMP-24 (Example 9); type: biochemical; parameters: key to MMP-24 (cross-reactivity, class symbol): X: Do not inhibit MMP-16 or MMP-24 at [I] = 100 nM level; Y: partially inhibit at [I] = 100 nM level; settings: Fab, 100 nM final inhibitor concentration; 5 nM MMP-24
Sequence of MMP-24 (Q9Y5R2 156-645): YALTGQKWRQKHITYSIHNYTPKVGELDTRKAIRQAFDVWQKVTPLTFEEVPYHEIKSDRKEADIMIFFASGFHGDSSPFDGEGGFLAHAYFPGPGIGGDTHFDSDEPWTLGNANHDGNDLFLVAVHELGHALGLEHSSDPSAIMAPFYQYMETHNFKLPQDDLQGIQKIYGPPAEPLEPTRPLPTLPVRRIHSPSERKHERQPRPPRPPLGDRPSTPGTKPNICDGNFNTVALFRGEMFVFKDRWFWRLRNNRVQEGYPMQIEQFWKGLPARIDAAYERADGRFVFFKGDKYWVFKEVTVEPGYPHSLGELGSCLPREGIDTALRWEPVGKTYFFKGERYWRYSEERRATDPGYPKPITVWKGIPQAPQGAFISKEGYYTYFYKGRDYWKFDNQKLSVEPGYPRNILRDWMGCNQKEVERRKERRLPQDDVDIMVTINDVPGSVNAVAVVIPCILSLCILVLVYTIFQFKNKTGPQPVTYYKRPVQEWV
Procedure: (§1) For the studies summarized in Table 15, 1 μM of anti-MMP-14 Fab/IgG (100 nM final inhibitor concentration) were incubated with 5 nM of MMP-16 or 5 nM of MMP-24 for 30 minutes at 30° C., 10 μM of substrate was added, and the MMP-16 activity was measured.

[5] = target: T2, MMP-14; experiment: IC50 for MMP-14 inhibition by Fabs and IgGs; type: biochemical; settings: Fab
Method in brief: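 Cleavage of the fluorogenic substrate Mca-Pro-Leu-Ala-Cys(Mob)-Trp-Ala-Arg-Dap(Dnp)-NH2 was measured without and with increasing Fab or IgG concentrations. IC50 is the binding-protein concentration that inhibits 50% of MMP-14 activity.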

[6] = target: T1, MMP-16; experiment: Cross-reactivity of Fabs with MMP-16 (Example 9); type: biochemical; parameters: key: X: Do not inhibit MMP-16 or MMP-24 at [I] = 100 nM level; Y: partially inhibit at [I] = 100 nM level; settings: Fab, 100 nM final inhibitor concentration, 5 nM MMP-16
Procedure: as §1

Molecule | Cross reactivity: inhibition of MMP-16 activity [1] | MMP-16 (cross-reactivity, class symbol) ([2]; Fab 100 nM) | MMP-16 (cross-reactivity, class symbol) ([2]; IgG 100 nM) | bind to human MMP-14 [3] | MMP-24 (cross-reactivity, class symbol) [4] | bind to and inhibit human MMP-14 [5] | MMP-16 (cross-reactivity, class symbol) [6] | MMP-24 inhibition [4] | MMP-16 inhibition ([2]; Fab 100 nM) | MMP-16 inhibition ([2]; IgG 100 nM)
B1 | Y (Inhibition (Y) of activity ranged from approximately 50-80% of the reaction rate observed in the absence of antibody) | X | X | bind to human MMP-14 | X | bind to and inhibit human MMP-14 | X | – | – | –
B2 | Y (Inhibition (Y) of activity ranged from approximately 50-80% of the reaction rate observed in the absence of antibody) | X | X | bind to human MMP-14 | – | bind to and inhibit human MMP-14 | X | Y 65% inhibition | – | –
B3 | Y (Inhibition (Y) of activity ranged from approximately 50-80% of the reaction rate observed in the absence of antibody) | – | – | bind to human MMP-14 | – | bind to and inhibit human MMP-14 | X | Y 74% inhibition | Y 70% inhibition | Y 94% inhibition
